Patent US12723255B2, “Herbicide tolerance genes and methods of use thereof” (priority 2014, dated 2026)
Where two headings read alike, the source gives them in different places.

Columns and labels:
[1] = assay type: biochemical; details: substrate quizalofop-P
Procedure: To analyze these engineered proteins for activity in higher temperatures, the in vitro enzyme assay in Example 1 was modified to specify pre-heating all of the assay components to the desired temperature for 5 minutes before combining the components and then maintaining the reaction at the desired temperature for the duration of the reaction. To normalize the assay measurements, quizalofop-P was used as the substrate for the reaction and enzyme activity was normalized based on the 25° C. readings. Using these parameters, the temperature at which the enzyme activity was half of maximum (T1/2) was calculated. The T1/2 for MON-HT55 was calculated to be 29° C., and the T1/2 for wild-type RdpA was calculated to be 38° C. (FIG. 2A).
Enzyme activity over a range of temperatures was analyzed in-depth for MON-HT1, MON-HT2, MON-HT7, and MON-HT8. These assays were conducted as described above. Quizalofop-P or 2,4-D was used as the substrate for these reactions and activity was normalized based on the activity of the wild-type enzyme at 25° C. The activity curves obtained are presented in FIG. 2B (with quizalofop-P as the substrate) and FIG. 2C (with 2,4-D as the substrate). Using quizalofop-P as the substrate, MON-HT55 was the most temperature sensitive, with a T1/2 of 29° C. […] MON-HTI was slightly less temperature sensitive, with a T1/2 about 1° C. higher than the wild-type enzyme.

[2] = kinetic analysis, non-endpoint assay at 23° C.; assay type: biochemical
Source text: For the fifth screen, recombinant protein for each of the eleven engineered proteins was produced and purified for an in-depth biochemical analysis. This biochemical analysis included: (1) kinetic analysis (Vmax and Km), (2) activity assays over a range of temperatures, (3) protein melting analysis, (4) activity on additional AOPP herbicides substrates, and (5) mass spectrometry analysis on peptides to confirm identity. The biochemical analyses were also done with purified recombinant wild-type protein and MON-HT55 protein for comparison. For the kinetic analysis, a non-endpoint assay was conducted at 23° C. with either quizalofop-P or 2,4-D as substrate. The recombinant proteins for these assays were produced in bacteria and purified using a 6-His tag fused at the C-terminal end of the protein. Results of the kinetic analysis with either quizalofop-P or 2,4-D as substrate are presented for ten of the engineered proteins, wild-type protein, and MON-HT55 protein in Table 7 (standard error is shown in parenthetical). Vmax is expressed as specific activity, umol herbicide product mg enzyme-1 min-1; Km expressed as mM herbicide substrate. […] The differentiation of the protein kinetics for MON-HTI and MON-HT7 were surprising because there are only four amino acid differences between MON-HT1 and MON-HT7. Specifically, MON-HT1 has the following amino acids at the indicated position: 182; F105; T112; and V273, and MON-HT7 has the following amino acids at the indicated position: L82; V105; S112; and A273.
Kinetic analysis using a non-endpoint assay was conducted at 23° C. with either quizalofop-P or 2,4-D as substrate, as detailed above for purified protein of the wild-type enzyme, MON-HT1, MON-HT13, MON-HT15, and MON-HT17.

[3] = assay type: physicochemical
Procedure: A protein melting analysis was also conducted. For the protein melting determinations, purified enzyme was added to 96-well microtiter plates in standard storage buffer (30 mM Tris pH7.5, 150 mM NaCl) with or without 50 uM Fe2+ and 1.0 mM aKG. Protein unfolding was then detected with SYPRO® orange protein gel stain (Invitrogen™ catalog #S6651, Life Technologies, Grand Island, NY) in a BioRad CFX96™ Real time PCR machine (BioRad, Hercules, CA) with readings taken between 10° C. to 95° C. in 0.5° C. steps. […] In contrast, 50 uM Fe2+ and 1.0 mM aKG had little effect on the stability of any of the engineered proteins. MON-HT55, MON-HT3, MON-HT4, MON-HT6, and MON-HT10 had melting temperatures in the range of 41° C. to 48° C., which is below the melting temperature of the wild-type enzyme. MON-HT1, MON-HT2, MON-HT5, MON-HT7, MON-HT8, and MON-HT9 had melting temperatures between 58° C. and 67° C., which is 8° C. to 17° C. higher than the wild-type enzyme. For MON-HT7 and MON-HT1, the difference in melting point was 11° C. in buffer without Fe2+ and aKG and 8° C. in buffer with Fe2+ and aKG. This was surprising since there are only four amino acid differences between the two enzymes.
A protein melting analysis was conducted as detailed above. The melting temperatures of MON-HT13, MON-HT15, and MON-HT17 was similar to the melting temperature of MON-HT1 with T1/2 in buffer in the range of 55-58° C., and with T1/2 in buffer plus Fe2+ and aKG in the range of 60-62° C.

[4] = enzyme activity assay at 23° C. with purified enzyme; assay type: biochemical; details: wild-type set at 100%
Procedure: The enzyme activity of MON-HT protein variants with haloxyfop, fenoxaprop, fluazifop, and dichlorprop as substrates was determined using the enzyme activity assay conducted at 23° C. with purified enzyme. The activity was recorded as the maximum activity as a percentage of the wild-type enzyme's activity, which was set at 100%.

[5] = as above; assay type: biochemical; details: percentage of wild-type RdpA, set at 100%
Procedure: The enzyme activity of MON-HT protein variants with triclopyr, fluroxypyr, MCPA, MCPB, mecoprop, as substrates was determined using the enzyme activity assay conducted at 23° C. with purified enzyme. The activity was recorded as the maximum activity as a percentage of the wild-type RdpA enzyme's activity, which was set at 100%. […] The enzymatic activity with mecoprop as a substrate was reduced for each of the MON-HT1, MON-HT13, MON-HT15, and MON-HT17 variants compared to the wild-type RdpA enzyme. An unexpected result was that enzymatic activity with MCPA as a substrate was roughly 6-fold greater for MON-HT1, and approximately 10-fold greater for MON-HT13, MON-HT15, and MON-HT17 compared to the wild-type RdpA enzyme.

B1: Wild-type RdpA: wild-type RdpA enzyme from Sphingobium herbicidovorans, SEQ ID NO:60 (protein)
chain: MHAALSPLSQRFERIAVQPLTGVLGAEITGVDLREPLDDSTWNEILDAFHTYQVIYFPGQAITNEQHIAFSRRFGPVDPVPLLKSIEGYPEVQMIRREANESGRVIGDDWHTDSTFLDAPPAAVVMRAIDVPEHGGDTGFLSMYTAWETLSPTMQATIEGLNVVHSATRVFGSLYQAQNRRFSNTSVKVMDVDAGDRETVHPLVVTHPGSGRKGLYVNQVYCQRIEGMTDAESKPLLQFLYEHATRFDFTCRVRWKKDQVLVWDNLCTMHRAVPDYAGKFRYLTRTTVGGVRPAR
modifications: Sphingobium herbicidovorans
activity of the wild-type enzyme at 46° C. and 47° C. [1]: completely inactive | inactivation of the wild-type enzyme at 42° C. and 41° C. [1]: 90 % inactive | Vmax Quizalofop ([2]; 23° C., purified His-tagged protein, standard error in parenthetical): 1.38 (−0.06) umol herbicide product mg enzyme-1 min-1 | Km ([2]; 23° C., purified His-tagged protein, standard error in parenthetical, read-out: Km Quizalofop): 270 µM | Vmax 2,4-D ([2]; Table 10 series, unit as defined): 0.25 (0.01) umol herbicide product mg enzyme-1 min-1 | Km ([2]; Table 10 series, unit as defined, read-out: Km 2,4-D): 130 µM | Vmax Quizalofop ([2]; Table 10 series, 23° C., unit as defined): 2.76 (0.11) umol herbicide product mg enzyme-1 min-1 | Km ([2]; Table 10 series, 23° C., unit as defined, read-out: Km Quizalofop): 90 µM | Vmax 2,4-D ([2]; standard error in parenthetical, NDB = activity not robust enough for kinetic characterization): 0.10 (−0.01) umol herbicide product mg enzyme-1 min-1 | Km ([2]; standard error in parenthetical, NDB = activity not robust enough for kinetic characterization, read-out: Km 2,4-D): 30 µM | Melting temp, Buffer ([3]; Table 11 series): 43 °C | Melting temp, Buffer plus Fe2+ and aKG ([3]; Table 11 series): 53 °C | T1/2, temperature where 50% of the protein was unfolded, Buffer plus Fe2+ and aKG ([3]; buffer): 50 °C | T1/2, temperature where 50% of the protein was unfolded, Buffer ([3]; buffer, pH 7.5): 42 °C | maximum activity as a percentage of the wild-type enzyme's activity, Haloxyfop ([4]; purified enzyme): 100% | maximum activity as a percentage of the wild-type enzyme's activity, Dichlorprop [4]: 100% | maximum activity as a percentage of the wild-type enzyme's activity, Fenoxaprop [4]: 100% | maximum activity as a percentage of the wild-type enzyme's activity, Fluazifop [4]: 100% | MCPA Km [5]: 100% | MCPA Vmax [5]: 100% | Mecoprop Km [5]: 100% | Mecoprop Vmax [5]: 100%
